# Measurements taken from IntAct's records for PubMed 22791719.
# B1: Phospholipid-transporting ATPase DRS2 (Saccharomyces cerevisiae), P39524 (parent)
# chain: MNDDRETPPKRKPGEDDTLFDIDFLDDTTSHSGSRSKVTNSHANANYIPPSHVLPEETIDLDADDDNIENDVHENLFMSNNHDDQTSWNANRFDSDAYQPQSLRAVKPPGLFARFGNGLKNAFTFKRKKGPESFEMNHYNAVTNNELDDNYLDSRNKFNIKILFNRYILRKNVGDAEGNGEPRVIHINDSLANSSFGYSDNHISTTKYNFATFLPKFLFQEFSKYANLFFLCTSAIQQVPHVSPTNRYTTIGTLLVVLIVSAMKECIEDIKRANSDKELNNSTAEIFSEAHDDFVEKRWIDIRVGDIIRVKSEEPIPADTIILSSSEPEGLCYIETANLDGETNLKIKQSRVETAKFIDVKTLKNMNGKVVSEQPNSSLYTYEGTMTLNDRQIPLSPDQMILRGATLRNTAWIFGLVIFTGHETKLLRNATATPIKRTAVEKIINRQIIALFTVLIVLILISSIGNVIMSTADAKHLSYLYLEGTNKAGLFFKDFLTFWILFSNLVPISLFVTVELIKYYQAFMIGSDLDLYYEKTDTPTVVRTSSLVEELGQIEYIFSDKTGTLTRNIMEFKSCSIAGHCYIDKIPEDKTATVEDGIEVGYRKFDDLKKKLNDPSDEDSPIINDFLTLLATCHTVIPEFQSDGSIKYQAASPDEGALVQGGADLGYKFIIRKPNSVTVLLEETGEEKEYQLLNICEFNSTRKRMSAIFRFPDGSIKLFCKGADTVILERLDDEANQYVEATMRHLEDYASEGLRTLCLAMRDISEGEYEEWNSIYNEAATTLDNRAEKLDEAANLIEKNLILIGATAIEDKLQDGVPETIHTLQEAGIKIWVLTGDRQETAINIGMSCRLLSEDMNLLIINEETRDDTERNLLEKINALNEHQLSTHDMNTLALVIDGKSLGFALEPELEDYLLTVAKLCKAVICCRVSPLQKALVVKMVKRKSSSLLLAIGDGANDVSMIQAAHVGVGISGMEGMQAARSADIAVGQFKFLKKLLLVHGSWSYQRISVAILYSFYKNTALYMTQFWYVFANAFSGQSIMESWTMSFYNLFFTVWPPFVIGVFDQFVSSRLLERYPQLYKLGQKGQFFSVYIFWGWIINGFFHSAIVFIGTILIYRYGFALNMHGELADHWSWGVTVYTTSVIIVLGKAALVTNQWTKFTLIAIPGSLLFWLIFFPIYASIFPHANISREYYGVVKHTYGSGVFWLTLIVLPIFALVRDFLWKYYKRMYEPETYHVIQEMQKYNISDSRPHVQQFQNAIRKVRQVQRMKKQRGFAFSQAEEGGQEKIVRMYDTTQKRGKYGELQDASANPFNDNNGLGSNDFESAEPFIENPFADGNQNSNRFSSSRDDISFDI
# partner: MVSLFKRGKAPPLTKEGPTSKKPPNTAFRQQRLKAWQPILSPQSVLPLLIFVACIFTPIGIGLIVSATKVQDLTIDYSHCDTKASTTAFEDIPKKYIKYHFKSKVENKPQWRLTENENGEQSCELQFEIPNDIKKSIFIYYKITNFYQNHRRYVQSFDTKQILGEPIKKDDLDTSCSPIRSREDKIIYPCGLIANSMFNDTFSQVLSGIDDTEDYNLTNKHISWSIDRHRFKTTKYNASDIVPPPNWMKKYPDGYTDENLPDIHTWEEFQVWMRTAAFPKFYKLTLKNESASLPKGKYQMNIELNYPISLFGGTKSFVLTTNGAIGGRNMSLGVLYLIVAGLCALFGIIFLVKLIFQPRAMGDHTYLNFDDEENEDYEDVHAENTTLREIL
# B2: Phospholipid-transporting ATPase accessory subunit CDC50 (Saccharomyces cerevisiae), P25656 (parent)
# chain: B1 partner
# partner: B1 chain
# B3: Phospholipid-transporting ATPase accessory subunit LEM3 (Saccharomyces cerevisiae), P42838 (parent)
# chain: MVNFDLGQVGEVFRRKDKGAIVSGDNPEEEEDVDASEFEEDEVKPVRTKNRRPKEDAFTQQRLAAINPVLTPRTVLPLYLLIAVVFVIVGGCILAQNSKVDEVTIYYQDCMTNATSSWSDIPSEHWQFVFHKYKTYNTAPQWRFVDDESDDFTKQRGTCQIRFTTPSDMKNNVYLNYVLEKFAANHRRYVLSFSEDQIRGEDASYETVHDATGINCKPLSKNADGKIYYPCGLIANSMFNDTFPLQLTNVGDTSNNYSLTNKGINWESDKKRYKKTKYNYTQIAPPPYWEKMYPDGYNETNIPDIQDWEEFQNWMRPGAFDKITKLIRINKNDTLPAGEYQLDIGLHWPVLEFNGKKGIYLTHGSHLGGRNPFLGIVYLIGGCICAAMALILLTFWLFGGRKIADASSLSWNMK
# B4: Phospholipid-transporting ATPase accessory subunit CRF1 (Saccharomyces cerevisiae), P53740 (parent)
# chain: MGLILRWKEKKQLSSKQNAQKSRKPANTSFRQQRLKAWQPILSPQSVLPLLILMACVFAPIGIGLVVSTISVQRLVVNYTECDALAPAKHFETIPSEYVDYHFSKKVAVQPQWMVLTDPELGNQTCRIQFEVPNHIKKSTYVYYRLTNFNQNYREYVQSLDLDQLKGKALIGNDLDPNCDPLRTVENKTIFPCGLIANSMFNDTFGTTLTGVNDTADYLLTTKGIAWDTDSHRYGKTEYNASDIVPPPNWAKLFPNGYTDDNIPDLQNWEQFKIWMRTAALPNFYKLAMKNETNGLGKGIYIADIELNYPVRSFYGTKSFVLTTNSIIGAGNEALGIVYLIVAGIATLFAILFLIKVIFKPRPMHDHSYLNFENSDTPFDESSVVSIPLREIL
# Variants of: B1
# Conditions: with cdc50_yeast CDC50, P25656
row,effect of a mutation on the interaction,Variant
1,disrupting interaction strength,G341L
2,with no effect,E342Q
3,disrupting interaction strength,D560N

# Variants of: B2
# Conditions: with atc3_yeast DRS2, P39524
row,effect of a mutation on the interaction,Variant
1,disrupting interaction strength,C80A
2,decreasing interaction strength,C190A
3,decreasing interaction strength,C176A
4,disrupting interaction strength,C123A

# Variants of: B3
# Conditions: with atc5_yeast DNF1, P32660
# atc5_yeast DNF1, P32660, sequence (P32660 whole entry): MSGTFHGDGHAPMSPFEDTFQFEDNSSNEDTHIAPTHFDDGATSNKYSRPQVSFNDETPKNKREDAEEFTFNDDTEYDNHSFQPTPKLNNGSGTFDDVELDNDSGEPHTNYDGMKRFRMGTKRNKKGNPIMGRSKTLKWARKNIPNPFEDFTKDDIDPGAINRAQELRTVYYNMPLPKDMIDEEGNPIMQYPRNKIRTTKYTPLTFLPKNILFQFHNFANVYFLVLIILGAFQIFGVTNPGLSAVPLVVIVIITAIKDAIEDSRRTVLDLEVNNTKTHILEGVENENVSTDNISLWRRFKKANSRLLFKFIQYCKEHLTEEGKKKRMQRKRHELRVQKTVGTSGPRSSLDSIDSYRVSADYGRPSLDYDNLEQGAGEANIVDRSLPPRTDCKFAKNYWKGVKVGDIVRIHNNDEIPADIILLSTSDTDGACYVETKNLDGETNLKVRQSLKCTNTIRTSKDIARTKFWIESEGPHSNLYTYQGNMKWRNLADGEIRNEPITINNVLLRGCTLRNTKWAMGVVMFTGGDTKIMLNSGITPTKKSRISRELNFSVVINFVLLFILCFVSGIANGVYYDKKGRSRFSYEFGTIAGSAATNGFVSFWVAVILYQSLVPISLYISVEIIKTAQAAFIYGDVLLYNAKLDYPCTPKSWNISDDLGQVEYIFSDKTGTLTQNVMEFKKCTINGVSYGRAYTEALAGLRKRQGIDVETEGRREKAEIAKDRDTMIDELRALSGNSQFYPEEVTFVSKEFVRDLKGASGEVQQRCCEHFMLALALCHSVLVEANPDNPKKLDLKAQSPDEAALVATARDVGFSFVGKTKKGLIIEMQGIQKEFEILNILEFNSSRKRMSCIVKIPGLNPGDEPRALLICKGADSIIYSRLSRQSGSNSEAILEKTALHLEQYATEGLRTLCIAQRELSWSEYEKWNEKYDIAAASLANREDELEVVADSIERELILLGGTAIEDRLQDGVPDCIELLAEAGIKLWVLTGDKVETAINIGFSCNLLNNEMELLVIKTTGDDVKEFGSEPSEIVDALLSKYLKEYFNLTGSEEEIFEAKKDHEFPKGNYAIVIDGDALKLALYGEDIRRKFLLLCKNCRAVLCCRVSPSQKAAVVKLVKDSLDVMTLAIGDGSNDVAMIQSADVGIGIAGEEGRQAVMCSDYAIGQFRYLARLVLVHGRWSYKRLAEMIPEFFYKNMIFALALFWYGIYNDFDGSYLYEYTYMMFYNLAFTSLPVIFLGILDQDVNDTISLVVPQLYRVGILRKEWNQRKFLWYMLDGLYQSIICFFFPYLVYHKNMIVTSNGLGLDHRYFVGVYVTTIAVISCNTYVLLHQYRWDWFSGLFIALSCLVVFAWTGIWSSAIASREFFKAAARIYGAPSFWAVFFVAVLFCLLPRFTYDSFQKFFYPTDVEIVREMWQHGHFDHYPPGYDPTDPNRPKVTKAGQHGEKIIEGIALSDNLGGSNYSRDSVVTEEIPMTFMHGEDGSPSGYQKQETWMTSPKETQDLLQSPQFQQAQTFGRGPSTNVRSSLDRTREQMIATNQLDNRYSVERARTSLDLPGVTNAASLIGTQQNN
row,Variant,effect of a mutation on the interaction
1,S237L,disrupting interaction strength
2,A83T,disrupting interaction strength
3,G375E,disrupting interaction strength
4,A404V,disrupting interaction strength

# Next, values leading:
row,effect of a mutation on the interaction,Variant
1,disrupting interaction strength,C159A
2,decreasing interaction strength,C231A
3,disrupting interaction strength,C110A
4,disrupting interaction strength,C216A

# Variants of: B3
# Conditions: with atc5_yeast DNF1, P32660
# Remark: another data set of the same source
row,effect of a mutation on the interaction,Variant
1,decreasing interaction strength,A65V

# Variants of: B4
# Conditions: with atc8_yeast DNF3, Q12674
# atc8_yeast DNF3, Q12674, sequence (Q12674 whole entry): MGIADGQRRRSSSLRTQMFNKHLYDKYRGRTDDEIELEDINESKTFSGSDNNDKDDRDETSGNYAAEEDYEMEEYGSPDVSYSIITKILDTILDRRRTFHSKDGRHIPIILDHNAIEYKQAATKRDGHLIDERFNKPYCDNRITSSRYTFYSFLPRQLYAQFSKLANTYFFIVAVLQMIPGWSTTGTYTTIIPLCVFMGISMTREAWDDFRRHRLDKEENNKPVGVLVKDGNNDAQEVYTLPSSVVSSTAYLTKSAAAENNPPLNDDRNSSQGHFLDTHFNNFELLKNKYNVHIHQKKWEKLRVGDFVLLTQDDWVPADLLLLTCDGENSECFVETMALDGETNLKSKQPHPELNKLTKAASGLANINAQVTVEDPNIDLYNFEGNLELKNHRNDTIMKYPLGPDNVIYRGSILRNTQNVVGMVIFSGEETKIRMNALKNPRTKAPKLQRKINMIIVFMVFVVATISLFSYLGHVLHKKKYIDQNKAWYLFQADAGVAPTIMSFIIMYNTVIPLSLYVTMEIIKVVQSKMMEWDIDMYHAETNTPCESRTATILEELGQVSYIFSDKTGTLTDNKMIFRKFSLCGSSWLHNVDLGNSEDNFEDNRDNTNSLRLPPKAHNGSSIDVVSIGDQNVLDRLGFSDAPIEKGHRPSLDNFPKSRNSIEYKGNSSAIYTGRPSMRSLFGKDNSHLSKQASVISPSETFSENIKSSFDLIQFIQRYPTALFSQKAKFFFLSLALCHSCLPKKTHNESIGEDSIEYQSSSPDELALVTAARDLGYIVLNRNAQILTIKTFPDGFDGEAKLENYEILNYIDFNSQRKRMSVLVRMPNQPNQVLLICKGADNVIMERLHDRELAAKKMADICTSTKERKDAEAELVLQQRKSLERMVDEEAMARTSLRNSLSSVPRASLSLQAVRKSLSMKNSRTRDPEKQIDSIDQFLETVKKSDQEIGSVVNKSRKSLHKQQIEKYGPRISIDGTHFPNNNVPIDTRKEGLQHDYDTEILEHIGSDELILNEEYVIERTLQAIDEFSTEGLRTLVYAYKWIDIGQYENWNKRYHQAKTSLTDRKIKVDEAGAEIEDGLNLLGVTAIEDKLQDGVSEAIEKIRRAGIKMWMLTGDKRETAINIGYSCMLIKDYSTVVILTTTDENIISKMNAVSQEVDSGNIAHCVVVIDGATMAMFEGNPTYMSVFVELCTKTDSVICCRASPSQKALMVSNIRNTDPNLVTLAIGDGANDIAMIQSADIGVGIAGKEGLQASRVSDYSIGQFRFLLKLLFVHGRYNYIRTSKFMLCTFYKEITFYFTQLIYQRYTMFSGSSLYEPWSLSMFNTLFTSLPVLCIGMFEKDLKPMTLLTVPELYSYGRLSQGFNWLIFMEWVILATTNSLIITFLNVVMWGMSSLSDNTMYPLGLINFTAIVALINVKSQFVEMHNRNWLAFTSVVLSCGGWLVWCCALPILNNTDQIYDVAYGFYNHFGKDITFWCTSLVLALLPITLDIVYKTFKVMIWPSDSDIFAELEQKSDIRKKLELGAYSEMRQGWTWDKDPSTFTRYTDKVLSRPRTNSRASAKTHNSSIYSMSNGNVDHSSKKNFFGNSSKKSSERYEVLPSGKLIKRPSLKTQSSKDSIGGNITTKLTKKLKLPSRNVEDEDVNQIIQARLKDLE
row,effect of a mutation on the interaction,Variant
1,decreasing interaction strength,C179A
2,disrupting interaction strength,C126A
3,decreasing interaction strength,C193A
4,disrupting interaction strength,C82A
